Reference: publication PMC8784642

Molecular target: Thermoanaerobacter italicus TagA^FL∗ (residues M1-R244, I203E/L209Q/L212K/I216E), solubility-enhanced TagA (Thermoanaerobacter italicus)
Assay: AUC

Kd: 210 µM | stoichiometry N: 2
Substance: Thermoanaerobacter italicus TagA^FL∗ (residues M1-R244, I203E/L209Q/L212K/I216E), solubility-enhanced TagA (enzyme)
